The values below come from patent US20230009582A1 (MEMO THERAPEUTICS, published 2023).

The target in assay [1] is T1, Siglec-5-Fc (R&D systems) (UniProt O15389 17-434, limits assumed).
T1 construct: Bought reagent; not shown: Fc part of the bought fusion; not described
T1 sequence (looked up): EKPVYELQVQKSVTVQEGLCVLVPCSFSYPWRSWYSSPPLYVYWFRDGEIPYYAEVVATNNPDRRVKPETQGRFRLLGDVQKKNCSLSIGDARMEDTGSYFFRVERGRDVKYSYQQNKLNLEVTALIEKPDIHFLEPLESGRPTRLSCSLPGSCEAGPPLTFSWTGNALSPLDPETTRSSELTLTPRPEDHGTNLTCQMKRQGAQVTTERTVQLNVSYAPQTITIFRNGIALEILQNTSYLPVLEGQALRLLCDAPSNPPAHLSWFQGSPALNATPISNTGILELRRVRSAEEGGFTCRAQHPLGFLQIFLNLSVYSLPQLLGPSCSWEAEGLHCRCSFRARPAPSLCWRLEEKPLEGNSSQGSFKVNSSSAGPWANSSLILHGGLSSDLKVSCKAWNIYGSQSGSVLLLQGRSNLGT
As to the kind of experiment: ELISA, coated Siglec-5-Fc 1 µg/ml, single antibody concentration, Abs 450 nm, n=3. How it is done:
(§1) Specificity towards Siglec-5, Siglec-7, Siglec-8, Siglec-15 and Siglec-9 was assayed in enzyme-linked immunosorbent assay (ELISA) using 96 well half-area ELISA plates (Corning). Siglec-5-Fc (R&D systems), Siglec-7-Fc (in-house production, Siglec-7-Fc protein used had the following amino acid sequence:
(§2) (SEQ ID NO: 59)) […] […] […] […] […] […] […] […] […] […] […] […], Siglec-8-Fc (R&D systems), Siglec-15- Fc (R&D systems) and Siglec-9-Fc (in-house production, SEQ ID NO: 11) were coated at 1 μg/ml in 50 mM carbonate-bicarbonate buffer pH 9.6 for 15-20 hours at 4° C.
(§3) Antigens were washed away (Tecan Hydrospeed) and plates were blocked with 5% skimmed milk in phosphate-buffered saline (PBS). After washing the plates, antibodies were added at 5 μg/ml (33 nM) in 0.5% milk PBS in triplicates. Plates with antibodies were incubated for 1 hour at room temperature. Plates were washed and bound antibodies were detected by horseradish peroxidase (HRP)-labeled polyclonal anti-rabbit IgG antibody (Biolegend) or anti-human Fab fragment for mAbA (Sigma Aldrich). 3,3′,5,5′-Tetramethylbenzidine (TMB; Sigma Aldrich) development was stopped by addition of sulfuric acid and absorbance was detected at 450 nm (Tecan, CM […] MONO 200).
On the technique in general: ELISA stands for enzyme-linked immunosorbent assay.

Assay [2] concerns the target T2, Siglec-7-Fc (in-house production).
T2 construct: The entry holds the Siglec-7 part and the Fc together; also called Siglec-7-Fc protein
As to the kind of experiment: ELISA, coated Siglec-7-Fc 1 µg/ml, single antibody concentration, Abs 450 nm, n=3. Here is the method:
as §1, §2, §3

In assay [3] the target is T3, Siglec-8-Fc (R&D systems) (UniProt Q9NYZ4 17-363, limits assumed).
T3 construct: Bought reagent; not shown: Fc part of the bought fusion; not described
T3 sequence (Q9NYZ4 17-363 limits assumed): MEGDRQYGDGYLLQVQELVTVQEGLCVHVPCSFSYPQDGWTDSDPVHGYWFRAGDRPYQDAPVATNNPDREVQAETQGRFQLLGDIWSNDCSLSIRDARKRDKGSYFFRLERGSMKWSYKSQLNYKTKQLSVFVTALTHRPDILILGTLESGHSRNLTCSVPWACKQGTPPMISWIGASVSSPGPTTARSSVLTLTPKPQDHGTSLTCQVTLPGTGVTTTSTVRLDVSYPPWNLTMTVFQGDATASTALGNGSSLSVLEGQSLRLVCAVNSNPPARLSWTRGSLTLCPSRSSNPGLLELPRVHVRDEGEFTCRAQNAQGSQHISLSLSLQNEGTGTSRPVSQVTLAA
As to the kind of experiment: ELISA, coated Siglec-8-Fc 1 µg/ml, single antibody concentration, Abs 450 nm, n=3. How it is done: as §1, §2, §3

Assay [4] addresses T4, Siglec-15-Fc (R&D systems) (UniProt Q6ZMC9 20-263, limits assumed).
T4 construct: Bought reagent; not shown: Fc part of the bought fusion; not described
T4 sequence (looked up): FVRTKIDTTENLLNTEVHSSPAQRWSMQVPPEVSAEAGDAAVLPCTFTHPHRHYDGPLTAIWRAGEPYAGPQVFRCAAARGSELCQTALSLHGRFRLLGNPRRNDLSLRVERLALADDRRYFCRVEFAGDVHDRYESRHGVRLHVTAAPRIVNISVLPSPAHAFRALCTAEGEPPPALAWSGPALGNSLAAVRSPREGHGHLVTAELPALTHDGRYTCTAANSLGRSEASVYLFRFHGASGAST
Briefly: ELISA, coated Siglec-15-Fc 1 µg/ml, single antibody concentration, Abs 450 nm, n=3. How it is done: as §1, §2, §3

In assay [5] the target is T5, Siglec-9 protein (construct not stated; antigen of Examples 3 and 4) (human, UniProt Q9Y336 18-348, limits assumed). Briefly: ELISA, coated Siglec-9 1 µg/ml, antibody titrated, Abs 450 nm, three-parameter fit, n=3. How it is done:
FIG. 2: Binding curves of monoclonal antibodies (68D4 and 224B1; comparative monoclonal antibodies mAbA and 5C6 & negative control 53C3) towards Siglec-9 as analysed by ELISA. Binding of the monoclonal antibody to Siglec-9, as determined by measurement of the accumulated coloured product at 450 nm after stopping the reaction, is plotted against the concentration of the monoclonal antibody under evaluation.
Antibody binding affinity towards Siglec-9 was measured by a dilution series of the analysed antibodies on a fixed concentration of Siglec-9 protein in ELISA. To this end, Siglec-9 was coated at 1 μg/ml in 50 mM carbonate-bicarbonate buffer pH 9.6 for 15-20 hours at 4° C. Antigen solution was washed away (Tecan Hydrospeed) and plates were blocked with 5% skimmed milk in phosphate-buffered saline (PBS) for 1 hour at room temperature. Plates were washed and antibodies were added at concentrations of 0-420 nM. After incubation at room temperature for 1 hour plates were washed once more. Bound antibodies were detected by addition of horseradish peroxidase (HRP)-coupled secondary antibodies. Rabbit antibodies were detected by polyclonal anti-rabbit IgG antibody (Biolegend), mAbA by anti-human Fab fragment (Sigma Aldrich). After a last washing step, plates were developed by the addition of 3,3′,5,5′-Tetramethylbenzidine (TMB; Sigma Aldrich). Reaction was stopped by addition of sulfuric acid. Absorbance was detected at 450 nm (Tecan, CM […] MONO 200). Data were fitted and EC50 values were determined by three-parameter analysis in GraphPad Prism (GraphPad Software)

Assay [6] concerns the target T6, Siglec-9 expressed on cells (human, UniProt Q9Y336 18-463).
T6 construct: also called monocyte-expressed Siglec-9
As to the kind of experiment: flow cytometry on human CD14+ monocytes (PBMC), mean RFU of the secondary antibody, three-parameter fit. Here is the method: (§4) Human ex vivo PBMC were stained with fluorescence-labeled (allophycocyanin, APC) antibody to the monocyte marker CD14 (Biolegend) in assay buffer (0.5% (v/v) heat-inactivated fetal bovine serum (Gibco), 2 mM EDTA in phosphate-buffered saline). Subsequently, cells were incubated with antibodies under evaluation at various concentrations (67 nM-0.38 pM). After a washing step cells were incubated with fluorescence-labeled (Brilliant Violet 421™) secondary antibody against human IgG (mAbA) or rabbit IgG (all other monoclonal antibodies under evaluation; both secondary antibodies from Biolegend).
(§5) Binding of Siglec-9-specific antibodies to monocytes (CD14-positive life cells) was analysed with a CytoFLEX flow cytometer (Beckham Coulter's). The mean fluorescence intensity of the secondary antibody staining in the CD14-positive population at each dilution was determined using Flow Jo software (BD). Datapoints generated by this analysis were fitted and EC50 values were determined by three-parameter analysis in GraphPad Prism (GraphPad Software)
On the technique in general: A flow cytometer gives signals particle by particle.

Assay [7] addresses T7, Siglec-9-Fc (in-house production).
T7 construct: The entry holds the Siglec-9 part and the Fc together; also called Siglec-9-Fc protein
Briefly: blocking assay: Calcein-AM labelled sialic acid-displaying A549 tumour cells binding to plate-captured Siglec-9-Fc, antibody titrated, n=3. Here is the method:
FIG. 4: Titration of monoclonal antibodies (68D4 and 224B1; comparative monoclonal antibodies mAbA and 5C6 & negative control 53C3) to determine blocking the binding of sialic acid-displaying A549 tumour cells to Siglec-9. Tumour cells were fluorescently-loaded with Calcein-AM in advance to the binding experiment and binding was determined by the released fluorescence upon cell lysis. Fluorescence released in the absence of antibody was set to 100% binding. Data was fitted by three-parameter analysis in GraphPad Prism (GraphPad Software); n=3.
To analyse if anti-Siglec-9 antibodies recognize the ligand-binding domain and block the binding of Siglec-9 to its ligands, sialic acids, we performed a cell-based assay where the binding of sialic-acid expressing A549 tumour cells to Siglec-9-Fc is evaluated in ELISA. ELISA-plates were coated with 3 μg/ml Protein-A (Thermo Fisher Scientific) overnight at 4° C. Plates were blocked with PBS, 1% BSA for 1 h, and incubated with 5 μg/ml Siglec-9-Fc for 1 h at RT. Anti-Siglec-9 antibodies at different concentrations (starting at 8 μg/ml or 53 nM); were mixed 1:1 with Calcein-AM (Thermo Fisher Scientific) labeled A549 tumour cells. The mixture was added to the ELISA plate and incubated for 1 h at 4° C. After washing of the plate, cells that were bound to the plate were lysed with PBS, 1% Triton-X 100 and released fluorescence was measured at an excitation of 485 nm and emission of 535 nm with a Synergy H1 (BioTek). Data were fitted by three-parameter analysis in GraphPad Prism (GraphPad Software).

In assay [8] the target is T6, Siglec-9 expressed on cells. Briefly: flow cytometry on human CD14+ monocytes in PBMC. How it is done:
as §4, §5

Assay [9] has as its target T5, Siglec-9 protein (construct not stated; …). As to the kind of experiment: SPR (Carterra LSA), antibody coupled to HC2000M chip, antigen in solution. Here is the method:
(§6) KD determination was performed by SPR by individually coating the antibodies to HC2000M chips via sulpho-NHS/EDC coupling chemistry. Chips were afterwards blocked with ethanolamine. Antigen was applied in one of the three different concentrations (20 nM, 100 nM and 500 nM) with a contact time of 240 s, followed by a dissociation phase of 120 s. After each antigen incubation, the bound antigen was removed from the antibodies with 10 mM glycine at pH 2.0. All kinetic parameters (kₒₙ, koff and KD) were determined using a kinetic fitting program (LSA Kinetics, Carterra).

The target is the same in assay [10]. Briefly: SPR (Carterra LSA), antibody coupled to HC2000M chip, antigen at 20, 100 and 500 nM. Here is the method:
as §6

The target of assay [11] is T7, Siglec-9-Fc (in-house production). As to the kind of experiment: ELISA, coated Siglec-9-Fc 1 µg/ml, antibody at 5 µg/ml (33 nM), Abs 450 nm, n=3. Here is the method:
as §1, §2, §3

The target of assay [12] is extra-cellular domain of Siglec-9 fused to a C-terminal his-tag (Homo sapiens (Human), UniProt Q9Y336 18-348). Briefly: ELISA, coated his-tagged Siglec-9 extracellular domain, anti-human Fc gamma detection, Abs 450 nm. The source says:
(SEQ ID NO: 44) […] […] […] […] […] […] […]. For detection of bound IgG either polyclonal anti- rabbit IgG antibody (68D4; Biolegend, #406401), or anti-human Fey fragment (humanized 68D4 and mAbA; Jackson Immuno Research laboratories, #109-035-098) were used.

T5 sequence (Q9Y336 18-348 limits assumed): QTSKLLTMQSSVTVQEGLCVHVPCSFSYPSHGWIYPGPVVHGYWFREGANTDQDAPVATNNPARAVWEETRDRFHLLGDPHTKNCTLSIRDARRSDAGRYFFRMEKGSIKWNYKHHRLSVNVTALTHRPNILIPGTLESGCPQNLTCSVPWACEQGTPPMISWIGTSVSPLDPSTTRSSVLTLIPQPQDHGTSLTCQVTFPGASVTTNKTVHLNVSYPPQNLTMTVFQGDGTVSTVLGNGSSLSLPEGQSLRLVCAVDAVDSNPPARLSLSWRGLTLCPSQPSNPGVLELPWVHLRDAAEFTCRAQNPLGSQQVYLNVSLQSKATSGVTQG
T6 sequence (Q9Y336 18-463 limits assumed): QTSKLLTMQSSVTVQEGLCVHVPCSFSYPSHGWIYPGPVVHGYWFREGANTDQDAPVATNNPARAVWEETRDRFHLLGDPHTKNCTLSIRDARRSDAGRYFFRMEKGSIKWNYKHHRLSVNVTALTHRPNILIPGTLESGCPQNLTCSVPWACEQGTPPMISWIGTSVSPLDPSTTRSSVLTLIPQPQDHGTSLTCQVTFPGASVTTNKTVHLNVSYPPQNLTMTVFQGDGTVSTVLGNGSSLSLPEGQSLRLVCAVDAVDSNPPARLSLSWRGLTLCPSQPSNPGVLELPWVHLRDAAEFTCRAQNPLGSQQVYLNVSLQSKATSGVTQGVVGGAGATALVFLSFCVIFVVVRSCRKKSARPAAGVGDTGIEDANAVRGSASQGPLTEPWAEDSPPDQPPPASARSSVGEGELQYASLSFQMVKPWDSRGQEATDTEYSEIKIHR
T2 sequence (chain, as listed by the source limits assumed): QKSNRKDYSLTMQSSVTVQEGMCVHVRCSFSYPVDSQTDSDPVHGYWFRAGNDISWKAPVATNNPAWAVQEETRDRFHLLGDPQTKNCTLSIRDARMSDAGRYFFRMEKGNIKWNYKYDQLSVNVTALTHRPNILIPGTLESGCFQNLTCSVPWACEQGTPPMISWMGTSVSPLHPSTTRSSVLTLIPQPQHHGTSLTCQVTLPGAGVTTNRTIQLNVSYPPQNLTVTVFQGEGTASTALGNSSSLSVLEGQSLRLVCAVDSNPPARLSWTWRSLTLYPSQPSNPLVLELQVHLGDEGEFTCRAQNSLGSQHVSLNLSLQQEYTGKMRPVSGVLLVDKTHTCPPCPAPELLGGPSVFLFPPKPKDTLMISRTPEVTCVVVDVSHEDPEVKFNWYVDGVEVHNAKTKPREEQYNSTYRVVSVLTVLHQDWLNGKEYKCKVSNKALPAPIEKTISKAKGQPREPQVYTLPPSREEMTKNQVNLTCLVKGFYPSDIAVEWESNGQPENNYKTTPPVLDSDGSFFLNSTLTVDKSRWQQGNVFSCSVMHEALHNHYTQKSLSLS
T7 sequence (chain, as listed by the source limits assumed): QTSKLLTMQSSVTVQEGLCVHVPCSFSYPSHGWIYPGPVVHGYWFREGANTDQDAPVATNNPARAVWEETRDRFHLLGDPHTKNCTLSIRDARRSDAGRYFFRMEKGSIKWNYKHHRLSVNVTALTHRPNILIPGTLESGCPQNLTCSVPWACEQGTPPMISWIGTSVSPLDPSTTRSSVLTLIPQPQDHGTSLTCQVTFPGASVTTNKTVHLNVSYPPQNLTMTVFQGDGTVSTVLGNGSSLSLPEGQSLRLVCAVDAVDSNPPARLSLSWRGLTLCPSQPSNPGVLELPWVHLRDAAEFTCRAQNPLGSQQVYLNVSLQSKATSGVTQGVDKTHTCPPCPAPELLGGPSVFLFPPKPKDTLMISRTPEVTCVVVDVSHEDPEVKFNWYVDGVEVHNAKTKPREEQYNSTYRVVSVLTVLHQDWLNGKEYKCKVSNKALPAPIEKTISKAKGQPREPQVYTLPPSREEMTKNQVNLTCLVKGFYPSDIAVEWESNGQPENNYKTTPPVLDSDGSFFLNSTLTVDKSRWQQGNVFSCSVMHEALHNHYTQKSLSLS
extra-cellular domain of Siglec-9 fused to a C-terminal his-tag, sequence (Q9Y336 18-348 limits assumed): as the sequence (Q9Y336 18-348 limits assumed) above

B1: comparative monoclonal antibody 5C6 (WO 2017/075432), mouse-rabbit chimera (antibody, V domains shown)
VH: EVQLQQSGPELVKPGASVRISCKASGYTFTDYNIHWVKQSQGKSLEWIGYIYPYNGDTGYNQKFQNKATLTVDNSSSTAYMELRSLTSEDSAVYYCANGNYLYYYAMDYWGQGTSVTVSS
VL: DVVMTQTPLSLPVSLGDQVSISCSSSQSLVHSNGNTYLHWYLQKSGQSPKLLIYKVSNRFSGVPDRFRGSGSGTDFTLKISRVEAEDLGVYFCSQNTHVPLTFGAGTKLELKG
A word on the EC50: it is the concentration that produces a half-maximal response. As to B1, the binding result in assay [1] is “no binding (tested: 5 µg/ml)”; in [2], “no binding (tested: 5 µg/ml)”; in assay [3], “no binding (tested: 5 µg/ml)”; in assay [4], “no binding (tested: 5 µg/ml)”; in assay [7], “binds”. For the same molecule, the EC50 in [5] is 0.34 nM; in assay [6], 4.18 nM.

B2: monoclonal antibody 68D4 (rabbit) (antibody, V domains shown)
VH: QSLEESGGRLVKPDETLTITCTVSGIDLSSYDMTWVRQAPGKGLEWIGIIYTGGLTYYASWAKGRFTISKTSTTVDLKITSPTTEDTATYFCAREVGDNNNFWGPGTLVTVSS
VL: DVVMTQTPASVSEPVGGTVTIKCQASESVDSGLAWYHQKPGQPPKLLIYDDTDLASGVPSRFKGSRSGTAHTLTISDLECADAATYYCQYTDYGRTYVGTFGGGTEVVIKG
notes: also called rb 68D4; rabbit 68D4
A word on the Kd: it is the constant that tells how readily two partners part at equilibrium. Higher therefore signals weaker binding. The koff is the first-order rate constant of dissociation. A low value points to a long-lived complex. For orientation: kon means a measure of how fast the partners come together. Turning to B2, in [8], the “fold stronger avidity than mAbA” value was around 3 fold. For the same molecule, in assay [8], the “fold stronger binding than 5C6” value is around 22 fold. In addition, the “fold better dissociation constant than mAbA” value in [9] is around 16.7 fold. In assay [10], this molecule returned a Kd of 0.15 nM. In [10], this molecule registered a koff of 9.6e-05 s⁻¹. The same molecule gave a kon in assay [10] of 640000 M⁻¹ s⁻¹. The binding result in assay [11] is “binds”; in assay [1], “no binding (tested: 5 µg/ml)”; in [2], “no binding (tested: 5 µg/ml)”; in assay [3], “no binding (tested: 5 µg/ml)”; in assay [4], “no binding (tested: 5 µg/ml)”. Besides, the EC50 in assay [5] turned out to be 0.05 nM; in assay [6], 0.19 nM.

B3: humanized anti-Siglec-9 antibody 68D4 (68D4-hum) (antibody, human IgG1, kappa, V domains shown)
VH: EVQLVESGGGLVQPGGSLRISCAASGIDLSSYDMTWVRQAPGKGLEWVSIIYTGGLTYYADSVKGRFTISRDNSKNTVYLQMNSLRAEDTAVYYCAREVGDNNNFWGQGTLVTVSS
VL: DIVMTQSPSSVSASVGDRVTITCRASESVSSGLAWYQQKPGKAPKLLVYDDTDLASGVPSRFSGSGSGTEFTLTISSLQPDDFATFYCQYTDYGRTYVGTFGGGTKVEIKR
notes: Human IgG1/kappa, expressed in HEK293F cells; also called humanized 68D4
In general, EC50 (read off the curve) refers to the midpoint of the concentration-response curve. A low value points to an effect from little substance. With B3, in assay [12], the “EC50 (read off the curve)” value was around 0.06 nM.
